Experimental data taken from patent US10865390B2, “Alcohol dehydrogenase mutant and application thereof in synthesis of diaryl chiral alcohols” (Jiangnan University, priority 2018, dated 2020).
Substitutions are numbered along the chain they refer to. Numbers in names are those of the source. Where “and” joins values, the source holds several entries; their conditions need not be identical. Equal values may be shown once.

What was measured:
Assay type in all cases: biochemical
[1] = test system: O=C(c1ccc(Cl)cc1)c1ccccn1; assay: Kinetic analysis of KpADH mutant M1 with CPMK; conditions: other: M1, NADPH, pH 7.0, 30° C.
Procedure: In an embodiment of the present disclosure, the mutant includes the substitution of glycine for glutamic acid at position 214 of the alcohol dehydrogenase with the amino acid sequence shown in SEQ ID No. 2, which is named M1.
(§1) Adopting a total reaction system of 200 μL including: 1.0 mM NADPH, 1.0 mM substrate CPMK and sodium phosphate buffer (PBS, 100 mM, pH 7.0), fully and evenly mixing, maintaining at 30° C. for 2 min, adding an appropriate amount of enzyme solution, and detecting the change in light absorption at 340 nm.
(§2) The enzyme activity was calculated by the following formula: Enzyme activity (U)=EW×V×10^3/(6220×1);
(§3) in the formula, EW is the change in absorbance at 340 nm in 1 min; V is the volume of a reaction solution in mL; 6220 is the molar extinction coefficient of NADPH in L/(mol·cm); and 1 is the optical path distance in cm. One activity unit (U) corresponds to the amount of enzyme required to catalyze the oxidation of 1 μmol NADPH per minute under the above conditions.
(§4) A column used for purification was a nickel affinity column HisTrap FF crude, and purification was achieved through affinity chromatography using a histidine tag on recombinant protein. The nickel column was equilibrated with a solution A first, a crude enzyme solution was loaded, a penetrating peak was further eluted off using the solution A, and after equilibrium, a solution B (20 mM sodium phosphate, 500 mM NaCl, and 1000 mM imidazole, pH 7.4) was used for gradient elution to elute off the recombinant protein bound to the nickel column, so as to obtain the recombinant alcohol dehydrogenase mutant. The purified protein was subjected to activity measurement (CPMK as substrate, and NADPH as coenzyme) and SDS-PAGE analysis. […] The purified alcohol dehydrogenase protein was then replaced into a Tris-HCl (100 mM, pH 7.0) buffer using a Hi Trap Desalting column (GE Healthcare).
(§5) The activity of KpADH at different substrate concentrations and coenzyme concentrations was determined, and a double reciprocal curve was made based on the reciprocal of activity and substrate concentration to calculate kinetic parameters.

[2] = test system: O=C(c1ccc(Cl)cc1)c1ccccn1; assay: Kinetic analysis of KpADH mutant M2 with CPMK; conditions: other: M2, NADPH, pH 7.0, 30° C.
Procedure: In an embodiment of the present disclosure, the mutant includes the substitution of valine for glutamic acid at position 214 of the alcohol dehydrogenase with the amino acid sequence shown in SEQ ID No. 2, which is named M2.
as §1, §2, §3, §4, §5

[3] = test system: O=C(c1ccc(Cl)cc1)c1ccccn1; assay: Kinetic analysis of KpADH mutant M3 with CPMK; conditions: other: M3, NADPH, pH 7.0, 30° C.
Procedure: (§6) In an embodiment of the present disclosure, the mutant includes the substitution of glycine for glutamic acid at position 214 of the alcohol dehydrogenase with the amino acid sequence shown in SEQ ID No. 2, and the substitution of cysteine for serine at position 237, which is named M3.
as §1, §2, §3, §4, §5

[4] = test system: O=C(c1ccc(Cl)cc1)c1ccccn1; assay: Kinetic analysis of KpADH mutant M4 with CPMK; conditions: other: M4, NADPH, pH 7.0, 30° C.
Procedure: as §6, with “the” for “the alcohol dehydrogenase with the”, “2,” for “2, and”, “237, and the substitution of asparaginate for glutamine at position 136,” for “237,”, “M4.” for “M3.”
as §1, §2, §3, §4, §5

[5] = test system: O=C(c1ccc(Cl)cc1)c1ccccn1; assay: Kinetic analysis of KpADH mutant M6 with CPMK; conditions: other: M6, NADPH, pH 7.0, 30° C.
Procedure: In an embodiment of the present disclosure, the mutant includes the substitution of glycine for glutamic acid at position 214 of the amino acid sequence shown in SEQ ID No. 2, the substitution of cysteine for serine at position 237, the substitution of asparaginate for glutamine at position 136, the substitution of glycine for serine at position 196, and the substitution of valine for phenylalanine at position 161, which is named M6.
as §1, §2, §3, §4, §5

[6] = Stereoselectivity analysis of CPMK reduction (chiral liquid chromatography, Table 1); conditions: product CPMA from CPMK
Procedure: (§7) In an embodiment of the present disclosure, the (R)- and (S)-CPMA is chromatographed by taking 100 μL reaction solution, adding 500 μL ethyl acetate, shaking for 1-2 min, centrifuging at 12,000 rpm for 2-5 min, placing a supernatant into a centrifuge tube, and after an organic phase is naturally volatilized completely, adding 500 μL chromatographic pure ethanol for chiral liquid chromatography of a conversion rate and an ee value. The specific chromatographic conditions are as follows: Daicel Chiralcel OB-H (5 μm, 250 mm×4.6 mm) liquid chromatography column, mobile phases are n-hexane: ethanol: ethanolamine (90:10:0.01, v/v/v), the flow rate is 1 mL/min, the column temperature is 30° C., the UV detection wavelength is 254 nm, the injection volume is 10 μL, and the retention time for (R)-CPMA and that for (S)-CPMA are 11.14 min and 12.34 min respectively.
Method for determining optical purity ee:
As: molar concentration of (S)-CPMA obtained by liquid chromatography; and AR: molar concentration of (R)-CPMA obtained by liquid chromatography.
as §5

[7] = 20 mL biocatalytic system: asymmetric reduction of CPMK; conditions: for ee value of final reduction product: 20 mL biocatalytic system, enzyme 10 g/L, 30° C., pH 7.5; for time required to achieve a conversion rate close to 99.9%: CPMK concentration 200 mM
Procedure: as §7
A 20 mL biocatalytic system was established: 100 mM potassium phosphate buffer (pH 7.0), and the alcohol dehydrogenase mutants M6 and M7 obtained in Example 2 as well as wild KpADH 10 g/L, CPMK 100 mM, 200 mM and 500 mM were added (substrate added in batches). […]

[8] = Substrate specificity: reduction of prochiral carbonyl compound (Table 2)
Source text: The reduction on prochiral carbonyl compounds by the alcohol dehydrogenase mutants obtained in Example 2 was studied, and the studied prochiral carbonyl compounds include (4-chlorophenyl)-(pyridin-2-yl)-methanone (CPMK), phenyl-(pyridin-2-yl)-methanone, (4-chlorophenyl)-(phenyl)-methanone, (4-bromophenyl)-(phenyl)-methanone, (4-fluorophenyl)-(pyridin-2-yl)-methanone, (4-methoxyphenyl)-(phenyl)-methanone, acetophenone, 4-chloroacetophenone and 2-(4-chlorophenyl)acetyl chloride.

[9] = CPMK 100 mM, reaction time 12 h
[10] = CPMK 100 mM, reaction time 24 h
[11] = CPMK 200 mM, reaction time 12 h
[12] = CPMK 200 mM, reaction time 24 h
[13] = CPMK 500 mM, reaction time 12 h
[14] = CPMK 500 mM, reaction time 24 h

alcohol dehydrogenase KpADH mutant M1 (E214G of SEQ ID No. 2) (Vanderwaltozyma polyspora DSM 70294; E214G)
Km [1]: 0.52 mM
Vmax [1]: 11.1 µmol/min/mg
kcat [1]: 7.32 s⁻¹
kcat/Km [1]: 14100 M⁻¹ s⁻¹

alcohol dehydrogenase KpADH mutant M2 (E214V of SEQ ID No. 2) (Vanderwaltozyma polyspora DSM 70294; E214V)
Km [2]: 0.574 mM
Vmax [2]: 17.5 µmol/min/mg
kcat [2]: 11.7 s⁻¹
kcat/Km [2]: 14200 M⁻¹ s⁻¹

alcohol dehydrogenase KpADH mutant M3 (E214G/S237C of SEQ ID No. 2) (Vanderwaltozyma polyspora DSM 70294; E214G/S237C)
Km [3]: 0.632 mM
Vmax [3]: 9.32 µmol/min/mg
kcat [3]: 6.16 s⁻¹
kcat/Km [3]: 9740 M⁻¹ s⁻¹

alcohol dehydrogenase KpADH mutant M4 (E214G/S237C/Q136N of SEQ ID No. 2) (Vanderwaltozyma polyspora DSM 70294; E214G/Q136N/S237C)
Km [4]: 0.861 mM
Vmax [4]: 10.2 µmol/min/mg
kcat [4]: 6.76 s⁻¹
kcat/Km [4]: 7850 M⁻¹ s⁻¹

alcohol dehydrogenase KpADH mutant M6 (E214G/S237C/Q136N/S196G/F161V of SEQ ID No. 2) (Vanderwaltozyma polyspora DSM 70294; E214G/F161V/Q136N/S196G/S237C)
Km [5]: 1.12 mM
Vmax [5]: 25.2 µmol/min/mg
kcat [5]: 20.1 s⁻¹
kcat/Km [5]: 17900 M⁻¹ s⁻¹

B1: M6: alcohol dehydrogenase mutant E214G, S237C, Q136N, S196G, F161V of SEQ ID No. 2 (protein)
chain: MSVLISGASGYIAKHIVRVLLEQNYKVIGTVRSQDKADKLLKQYNNPNLSYEIVPEIANLDAFDDIFKKHGKEIKYVIHAASPVNFGAKDLEKDLVIPAINGTKNMFEAIKKYAPDTVERVVMTASYASIMTPHRNNDPTLTLDEETWNPVTEENAYENVVTAYCASKTFAEKEAWKFVKENSDAVKFKLTTIHPGFVFGPQNFDEDVTKKLNGTCEIINGLLHAPFDTKVEKTHFCQFIDVRDVAKTHVLGFQKDELINQRLLLCNGAFSQQDIVNVFNEDFPELKGQFPPEDKDTDLNKGVTGCKIDNEKTKKLLAFEFTPFHKTIHDTVYQILHKEGRV
modifications: Protein translated from synthetic DNA
ee [6]: 97.8% and 99.8%
ee value of final reduction product [7]: 99.5%
Conversion rate ([7]; CPMK 100 mM, reaction time 1 h): 24.6%
Conversion rate ([7]; CPMK 100 mM, reaction time 2 h): 54.6%
Conversion rate ([7]; CPMK 100 mM, reaction time 3 h): 69.4%
Conversion rate ([7]; CPMK 100 mM, reaction time 4 h): 80.2%
Conversion rate ([7]; CPMK 100 mM, reaction time 6 h): 95.2%
Conversion rate ([7]; CPMK 100 mM, reaction time 8 h): 97.2%
Conversion rate [7, 9]: 98.2%
Conversion rate [7, 10]: 99.6%
Conversion rate ([7]; CPMK 200 mM, reaction time 1 h): 19.1%
Conversion rate ([7]; CPMK 200 mM, reaction time 2 h): 36.4%
Conversion rate ([7]; CPMK 200 mM, reaction time 3 h): 52.8%
Conversion rate ([7]; CPMK 200 mM, reaction time 4 h): 70.6%
Conversion rate ([7]; CPMK 200 mM, reaction time 6 h): 89.7%
Conversion rate ([7]; CPMK 200 mM, reaction time 8 h): 92.2%
Conversion rate [7, 11]: 95.4%
Conversion rate [7, 12]: 99.2%
Conversion rate ([7]; CPMK 500 mM, reaction time 1 h): 12.8%
Conversion rate ([7]; CPMK 500 mM, reaction time 2 h): 22.1%
Conversion rate ([7]; CPMK 500 mM, reaction time 3 h): 30.6%
Conversion rate ([7]; CPMK 500 mM, reaction time 4 h): 65.3%
Conversion rate ([7]; CPMK 500 mM, reaction time 6 h): 77.9%
Conversion rate ([7]; CPMK 500 mM, reaction time 8 h): 87.6%
Conversion rate [7, 13]: 90.2%
Conversion rate [7, 14]: 99.5%
time required to achieve a conversion rate close to 99.9% [7]: 24 h
ee value of product ([8]; substrate drawing 2): 6.81%
ee value of product ([8]; substrate drawing 3): 91.7%
ee value of product ([8]; substrate drawing 5): 64.2%
ee value of product ([8]; substrate drawing 7): 95.3%
ee value of product ([8]; substrate drawing 8): 82.1%

B2: KpADH: wild type alcohol dehydrogenase KpADH, amino acid sequence shown in SEQ ID No. 2 (protein)
chain: B1 chain with N136Q, V161F, G196S, G214E, C237S
modifications: Protein translated from synthetic DNA
ee [6]: 82% and 82.5%
ee value of final reduction product [7]: 82%
Conversion rate ([7]; CPMK 100 mM, reaction time 1 h): 47.76%
Conversion rate ([7]; CPMK 100 mM, reaction time 2 h): 77.9%
Conversion rate ([7]; CPMK 100 mM, reaction time 3 h): 87.1%
Conversion rate ([7]; CPMK 100 mM, reaction time 4 h): 96.5%
Conversion rate ([7]; CPMK 100 mM, reaction time 6 h): 98.7%
Conversion rate ([7]; CPMK 100 mM, reaction time 8 h): 99.6%
Conversion rate [7, 9]: >99.9%
Conversion rate [7, 10]: >99.9%
Conversion rate ([7]; CPMK 200 mM, reaction time 1 h): 25.6%
Conversion rate ([7]; CPMK 200 mM, reaction time 2 h): 36.9%
Conversion rate ([7]; CPMK 200 mM, reaction time 3 h): 50.5%
Conversion rate ([7]; CPMK 200 mM, reaction time 4 h): 62.8%
Conversion rate ([7]; CPMK 200 mM, reaction time 6 h): 85.3%
Conversion rate ([7]; CPMK 200 mM, reaction time 8 h): 97.4%
Conversion rate [7, 11]: 99.4%
Conversion rate [7, 12]: 99.7%
Conversion rate ([7]; CPMK 500 mM, reaction time 1 h): 11.7%
Conversion rate ([7]; CPMK 500 mM, reaction time 2 h): 20.1%
Conversion rate ([7]; CPMK 500 mM, reaction time 3 h): 44.8%
Conversion rate ([7]; CPMK 500 mM, reaction time 4 h): 59.6%
Conversion rate ([7]; CPMK 500 mM, reaction time 6 h): 80.2%
Conversion rate ([7]; CPMK 500 mM, reaction time 8 h): 93.2%
Conversion rate [7, 13]: 95.6%
Conversion rate [7, 14]: 99.2%
time required to achieve a conversion rate close to 99.9% [7]: 12 h
ee value of product ([8]; substrate drawing 1 (CPMK)): 81.9%
ee value of product ([8]; substrate drawing 2): 26.3%
ee value of product ([8]; substrate drawing 3): 71.4%
ee value of product ([8]; substrate drawing 4): 69.2%
ee value of product ([8]; substrate drawing 5): 25.3%
ee value of product ([8]; substrate drawing 6): 14.9%
ee value of product ([8]; substrate drawing 7): 59.2%
ee value of product ([8]; substrate drawing 8): 67.1%
ee value of product ([8]; substrate drawing 9): 77.8%
